Target: T1, MMP-9 (Homo sapiens, UniProt P14780)
T1 construct: purchased Calbiochem
Experiment: MMP-9 digestion of masked and cross-masked scFvs (SDS-PAGE)
Format: biochemical
Conditions: into the mask and scFv proteins

T1 sequence (P14780 107-707 limits assumed, species assumed): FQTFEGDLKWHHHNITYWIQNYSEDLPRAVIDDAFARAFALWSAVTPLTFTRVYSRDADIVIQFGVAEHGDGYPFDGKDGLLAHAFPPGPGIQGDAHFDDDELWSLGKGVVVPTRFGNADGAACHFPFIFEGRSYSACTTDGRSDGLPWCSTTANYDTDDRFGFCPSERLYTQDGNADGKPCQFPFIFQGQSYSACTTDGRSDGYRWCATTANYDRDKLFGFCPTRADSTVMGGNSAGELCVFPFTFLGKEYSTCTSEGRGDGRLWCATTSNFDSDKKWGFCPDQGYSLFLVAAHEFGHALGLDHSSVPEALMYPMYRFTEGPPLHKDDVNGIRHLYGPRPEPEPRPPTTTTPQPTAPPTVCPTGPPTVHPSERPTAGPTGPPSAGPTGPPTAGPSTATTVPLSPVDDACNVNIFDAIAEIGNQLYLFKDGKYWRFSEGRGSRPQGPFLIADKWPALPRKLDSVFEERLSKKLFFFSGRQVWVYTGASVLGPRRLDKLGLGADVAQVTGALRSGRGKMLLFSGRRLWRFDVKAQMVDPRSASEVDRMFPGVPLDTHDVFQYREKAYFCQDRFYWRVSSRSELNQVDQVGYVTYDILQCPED

B1: Masked 425: sEGFRdIII (S460P/G461N) mask, MMP-9 cleavable linker, scFv 425, FLAG and H6 tags; SEQ ID NO:6 (protein)
chain: MRPSGTAGAALLALLAALCPASRARKVCNGIGIGEFKDSLSINATNIKHFKNCTSISGDLHILPVAFRGDSFTHTPPLDPQELDILKTVKEITGFLLIAAWPENRTDLHAFENLEIIRGRTKMEGQFSLAVVSLNITSLGLRSLKEISDGDVIISGNKNLCYANTINWKKLFGTSGQKTKIISNRGENSCKATGQVCHALCSPEGCWGPEPKDCVSCRNVSRGRECCSRGGGSGGGSGGGSVPLSLYSGSTSGSGKSSEGSGSGAQGELVMTQSPAIMSASPGEKVTMTCSASSSVTYMYWYQQKPGSSPRLLIYDTSNLASGVPVRFSGSGSGTSYSLTISRMEAEDAATYYCQQWSSHIFTFGSGTKLEIKGGGGSGGGGSGGGGSQVQLVESGAELVKPGASVKLSCKASGYTFTSHWMHWVKQRAGQGLEWIGEFNPSNGRTNYNEKFKSKATLTVDKSSSTAYMQLSSLTSEDSAVYYCASRDYDYDGRYFDYWGQGTTLTVSDYKDDDDKTGHHHHHH
cleavage by recombinant active MMP-9: completely cleaved
